{"source": "the supplement of paper PMC5998384", "key": {"[1]": {"test_system": "HeLa Kyoto", "assay": "solubility in G1/S (NP-40 vs SDS abundance) (log2 ratio); higher = more soluble", "settings": "cell cycle stage: G1/S"}, "[2]": {"test_system": "HeLa Kyoto", "assay": "melting temperature (median over replicates), in situ; higher = more thermally stable"}, "[3]": {"test_system": "HeLa Kyoto", "assay": "solubility change mitosis vs G1/S (difference of NP-40 vs SDS log2 ratios) (log2 ratio difference); higher = more soluble in mitosis"}, "[4]": {"test_system": "HeLa Kyoto", "assay": "thermal stability score vs G1/S (z-score of summed log2 fold changes over temperatures); higher = more thermally stable than in G1/S"}, "[5]": {"settings": "cell cycle stage: early G1 (4.5 h after nocodazole release)"}}, "data": [{"sequence": "MAAESALQVVEKLQARLAANPDPKKLLKYLKKLSTLPITVDILAETGVGKTVNSLRKHEHVGSFARDLVAQWKKLVPVERNAEPDEQDFEKSNSRKRPRDALQKEEEMEGDYQETWKATGSRSYSPDHRQKKHRKLSELERPHKVSHGHERRDERKRCHRMSPTYSSDPESSDYGHVQSPPSCTSPHQMYVDHYRSLEEDQEPIVSHQKPGKGHSNAFQDRLGASQERHLGEPHGKGVVSQNKEHKSSHKDKRPVDAKSDEKASVVSREKSHKALSKEENRRPPSGDNAREKPPSSGVKKEKDREGSSLKKKCLPPSEAASDNHLKKPKHRDPEKAKLDKSKQGLDSFDTGKGAGDLLPKVKEKGSNNLKTPEGKVKTNLDRKSLGSLPKVEETDMEDEFEQPTMSFESYLSYDQPRKKKKKIVKTSATALGDKGLKKNDSKSTGKNLDSVQKLPKVNKTKSEKPAGADLAKLRKVPDVLPVLPDLPLPAIQANYRPLPSLELISSFQPKRKAFSSPQEEEEAGFTGRRMNSKMQVYSGSKCAYLPKMMTLHQQCIRVLKNNIDSIFEVGGVPYSVLEPVLERCTPDQLYRIEEYNHVLIEETDQLWKVHCHRDFKEERPEEYESWREMYLRLQDAREQRLRVLTKNIQFAHANKPKGRQAKMAFVNSVAKPPRDVRRRQEKFGTGGAAVPEKIKIKPAPYPMGSSHASASSISFNPSPEEPAYDGPSTSSAHLAPVVSSTVSYDPRKPTVKKIAPMMAKTIKAFKNRFSRR [TCEB3]", "values": [{"measurement": "solubility in G1/S (log2)", "setting": "[1]", "value": -0.429}, {"measurement": "melting temperature", "setting": "[2]; cell cycle stage: G1/S", "value": 47.8, "unit": "°C"}, {"measurement": "melting temperature", "setting": "[2]; cell cycle stage: mitosis", "value": 49.2, "unit": "°C"}, {"measurement": "solubility change mitosis (log2)", "setting": "[3]", "value": 0.454}, {"measurement": "thermal stability score", "setting": "[4]; [5]", "value": 0.335}, {"measurement": "thermal stability score", "setting": "[4]; cell cycle stage: mitosis", "value": 1.24}]}, {"sequence": "MAAETRNVAGAEAPPPQKRYYRQRAHSNPMADHTLRYPVKPEEMDWSELYPEFFAPLTQNQSHDDPKDKKEKRAQAQVEFADIGCGYGGLLVELSPLFPDTLILGLEIRVKVSDYVQDRIRALRAAPAGGFQNIACLRSNAMKHLPNFFYKGQLTKMFFLFPDPHFKRTKHKWRIISPTLLAEYAYVLRVGGLVYTITDVLELHDWMCTHFEEHPLFERVPLEDLSEDPVVGHLGTSTEEGKKVLRNGGKNFPAIFRRIQDPVLQAVTSQTSLPGH [METTL1]", "values": [{"measurement": "solubility in G1/S (log2)", "setting": "[1]", "value": 0.231}, {"measurement": "melting temperature", "setting": "[2]; cell cycle stage: G1/S", "value": 52.4, "unit": "°C"}, {"measurement": "melting temperature", "setting": "[2]; cell cycle stage: mitosis", "value": 54.7, "unit": "°C"}, {"measurement": "solubility change mitosis (log2)", "setting": "[3]", "value": -0.075}, {"measurement": "thermal stability score", "setting": "[4]; [5]", "value": 0.937}, {"measurement": "thermal stability score", "setting": "[4]; cell cycle stage: mitosis", "value": 2.85}]}, {"sequence": "MAAEVYFGDLELFEPFDHPEESIPKPVHTRFKDDDGDEEDENGVGDAELRERLRQCEETIEQLRAENQELKRKLNILTRPSGILVNDTKLDGPILQILFMNNAISKQYHQEIEEFVSNLVKRFEEQQKNDVEKTSFNLLPQPSSIVLEEDHKVEESCAIKNNKEAFSVVGSVLYFTNFCLDKLGQPLLNENPQLSEGWEIPKYHQVFSHIVSLEGQEIQVKAKRPKPHCFNCGSEEHQMKDCPMPRNAARISEKRKEYMDACGEANNQNFQQRYHAEEVEERFGRFKPGVISEELQDALGVTDKSLPPFIYRMRQLGYPPGWLKEAELENSGLALYDGKDGTDGETEVGEIQQNKSVTYDLSKLVNYPGFNISTPRGIPDEWRIFGSIPMQACQQKDVFANYLTSNFQAPGVKSGNKRSSSHSSPGSPKKQKNESNSAGSPADMELDSDMEVPHGSQSSESFQFQPPLPPDTPPLPRGTPPPVFTPPLPKGTPPLTPSDSPQTRTASGAVDEDALTLEELEEQQRRIWAALEQAESVNSDSDVPVDTPLTGNSVASSPCPNELDLPVPEGKTSEKQTLDEPEVPEIFTKKSEAGHASSPDSEVTSLCQKEKAELAPVNTEGALLDNGSVVPNCDISNGGSQKLFPADTSPSTATKIHSPIPDMSKFATGITPFEFENMAESTGMYLRIRSLLKNSPRNQQKNKKASE [ZCCHC8]", "values": [{"measurement": "solubility in G1/S (log2)", "setting": "[1]", "value": 0.0806}, {"measurement": "melting temperature", "setting": "[2]; cell cycle stage: G1/S", "value": 51, "unit": "°C"}, {"measurement": "melting temperature", "setting": "[2]; cell cycle stage: mitosis", "value": 52.4, "unit": "°C"}, {"measurement": "solubility change mitosis (log2)", "setting": "[3]", "value": -0.117}, {"measurement": "thermal stability score", "setting": "[4]; [5]", "value": 0.273}, {"measurement": "thermal stability score", "setting": "[4]; cell cycle stage: mitosis", "value": 0.547}]}, {"sequence": "MAAFAVEPQGPALGSEPMMLGSPTSPKPGVNAQFLPGFLMGDLPAPVTPQPRSISGPSVGVMEMRSPLLAGGSPPQPVVPAHKDKSGAPPVRSIYDDISSPGLGSTPLTSRRQPNISVMQSPLVGVTSTPGTGQSMFSPASIGQPRKTTLSPAQLDPFYTQGDSLTSEDHLDDSWVTVFGFPQASASYILLQFAQYGNILKHVMSNTGNWMHIRYQSKLQARKALSKDGRIFGESIMIGVKPCIDKSVMESSDRCALSSPSLAFTPPIKTLGTPTQPGSTPRISTMRPLATAYKASTSDYQVISDRQTPKKDESLVSKAMEYMFGW [NUP35]", "values": [{"measurement": "solubility in G1/S (log2)", "setting": "[1]", "value": 0.209}, {"measurement": "melting temperature", "setting": "[2]; cell cycle stage: G1/S", "value": 52.3, "unit": "°C"}, {"measurement": "melting temperature", "setting": "[2]; cell cycle stage: mitosis", "value": 52, "unit": "°C"}, {"measurement": "solubility change mitosis (log2)", "setting": "[3]", "value": -0.0493}, {"measurement": "thermal stability score", "setting": "[4]; [5]", "value": -2.22}, {"measurement": "thermal stability score", "setting": "[4]; cell cycle stage: mitosis", "value": -0.679}]}, {"sequence": "MAAFLKMSVSVNFFRPFTRFLVPFTLHRKRNNLTILQRYMSSKIPAVTYPKNESTPPSEELELDKWKTTMKSSVQEECVSTISSSKDEDPLAATREFIEMWRLLGREVPEHITEEELKTLMECVSNTAKKKYLKYLYTKEKVKKARQIKKEMKAAAREEAKNIKLLETTEEDKQKNFLFLRLWDRNMDIAMGWKGAQAMQFGQPLVFDMAYENYMKRKELQNTVSQLLESEGWNRRNVDPFHIYFCNLKIDGALHRELVKRYQEKWDKLLLTSTEKSHVDLFPKDSIIYLTADSPNVMTTFRHDKVYVIGSFVDKSMQPGTSLAKAKRLNLATECLPLDKYLQWEIGNKNLTLDQMIRILLCLKNNGNWQEALQFVPKRKHTGFLEISQHSQEFINRLKKAKT [TRMT10C]", "values": [{"measurement": "solubility in G1/S (log2)", "setting": "[1]", "value": -0.0196}, {"measurement": "melting temperature", "setting": "[2]; cell cycle stage: G1/S", "value": 51.3, "unit": "°C"}, {"measurement": "melting temperature", "setting": "[2]; cell cycle stage: mitosis", "value": 51.9, "unit": "°C"}, {"measurement": "solubility change mitosis (log2)", "setting": "[3]", "value": -0.114}, {"measurement": "thermal stability score", "setting": "[4]; [5]", "value": 0.276}, {"measurement": "thermal stability score", "setting": "[4]; cell cycle stage: mitosis", "value": 0.67}]}]}
